Results on 19 sequences are retold here after the NTF2 design screens of Basanta et al. (2020).

This data set in a line: protease stability score; higher = more stable; yeast display proteolysis, trypsin and chymotrypsin.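 Further: relative to predicted unfolded state with 0 unfolded-like and 1 meaning tenfold more protease.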
“REDDEMSEEANRLLHELVRTGDFEQLIKNMDPNTRLRQGDKHFHGREEYEKHWRELLERAGLERVELHIDDIRVFNGVAHINGTLRIGDKVMEVRLILTKFNGKWIFTSMEIH” yielded a protease stability score of 1.26.

For “EERERLAEELARIWLEVLETGDWKMLHDLADPNVRNVVGDKEQHGREEMSRFYTEWHEHIRIHRIEIESIDIQGNKIQIHGRIDMEINGKRRDQRLEIIIIVINGRIKRLEVRLH”, the protease stability score is 0.948.

“SEHEKMMREIAKEYIDWFLTGDEELERNLADPDTRLNVDGREHHGMEEVIDLWRRIGLSNVDLRIHHWRAYGEFVYFDGEYTVGDKKRKVHFEYFVVNGRLKEVRVEIR” displayed a protease stability score of 1.51.

For “SEEHEVAKDAFDVTSHSWKTGDEELFRKLLDPNARFEIDGRDLHGRELVIKFIIEIRWEHTHVEEINVQGDKIIIKSRMEIHYNGVHINITVIVHVRKVNGRWITTHYIFI”, the protease stability score was found to be 1.67.

With “DKHEEALEIAIRLLELVWKTGDFEDFVRLLDPHTRFHYGDKDFIGMELWLRLHEHLGITQIEIRSTHHHRIHAQGDKVILDIEIEGIIGDKETRHRIKLVVVKVDGRWKIKEVHIR”, the protease stability score was 1.09.

“SEEDKKVEEAIKYLYSFLKTGDEHEVEDMIDPHVRIDVNGKNVHGWEEAFRWTVEHMKKLGVERFEVEIKDVHKQGNYVRVLGHSRFNGKEYEIEIILIKVNGRWIIKSHRIH”: the protease stability score is 1.64.

The sequence “DEDEEVIRRMLETELNAVKTGDWRKFYELADPSVLVDIDGKKIHGRELWSRHLMHLRIDEIHIRIDHMDVVNGVAELHIKMEFRGTIDGVHRKQSTEVILFIKKIDGQWVIQKIEVR” registered a protease stability score of 1.27.

“SEMDEASKLALKLLEHMVRTGDEHLSEHLVDPHARLFQGDKVEWGRERMTRQLHEWRVRDFKLKRVHVYNGRIEVDGVLNGTVDGVDENRDVRLIITKIDGQWLIKSVIIE” came in with a protease stability score of 0.474.

“HEDEEIVKTFAKIRTELERTGDWETIMRLLDPHVRMDIDGVRVHGMEEVVRHIREFEEKFGVTNVQSRFRDVRIIGDKVDIHSQVHINGVEKNLHIHVEKFNGKWVITEIKIE” registered a protease stability score of 1.28.

Regarding “DERDEVLEDTARRVLEWLTTGNWEELAKYADPNVKNDINGRIDHGREEMSRRIREELHKVKNLKFNITYFDIIGDKVHFWGTLHYDGRTMETHIHIEVVDGRLHHMQFEIK”, the protease stability score was determined as 0.983.

In turn, “SEKEKLSKDLTRLLLEIIMTGDWKALSDNMDPEARQDIGDKHIVGREIISQFKMELDEEAGFKHSEIQRIRIIGDKIEMDVHVDQGDKHHTVHIIVIIVNGRIKHVEVRIR” yielded a protease stability score of 2.

“DEEEQHAERVTRRWSRAVLTGNEEELSRLMDPHVRVHINGRDLHGREVAVEQRREQHKELGIDHIEVRLRHLRIQGDKLEVDSRVIIRVNGQEITIDTLLIWRKIDGRWVLHSVHEH” displayed a protease stability score of 0.348.

“SEEEELHRLLRERYIKNALTGNEKHLRRLADPNTRNNVNGRTHHGWDFYTDMISRLGADHVQIHDRHVDIQGEYIDVHLEVELNINGKHHRLDVRIIILKVDGKWTLHSFEML” returned a protease stability score of 0.553.

“TEREEENRIARQLFEHDWETGDEDSIHRLADPHALLTDENEKLHGREDVTDWIIKVSRKYKNLQFRVTDQELQGNKLIIYSTSKYNGRTFHLIFFVLKVDGRWHFHHMRIE” returned a protease stability score of 1.36.

In turn, “SEEVEHAEKVMRHTVHNIETGDEETWSNLADPNVLFQQGEFNLHGRELMFEWVRKYYEKIKNARIEIEDVRVFDGQIEFDVTWRVGDKHLKVHLHIEVINGRITEVRVDEK” displayed a protease stability score of 0.98.

As to “DEDEKNLEKVAHDFIRATETGNEKILHELLDPNTREEINGVDLHGRETIAKFFLDIRRNLGIKVRMRLRDWKIYNGVVELDTEVIIDVGDKRIEHKVVIYVVKYNGRWLIDKIEWI”, the protease stability score is 1.81.

“THEDEIFKEFERILREVDETGDEHDIKQYLDPNTKFHINGRDLIGMKVVTEFWRELLQKYKNLTINRRIRHVEVYNGRVHIHGHLSLHYGDKDIRVDVHIQAIKIDGRWHLQQEHYL” yielded a protease stability score of 1.15.

“SEEEEEVHKFMEDLARAYLTGDEKRFRELVDPNVKSNIDGQTIHGREELTKWVSDSAKKYGVDHLEMRVRTINIQGNKAHMDGEIVLEYGDKRVSRQVEIVVTKINGQWLLEREHIH”: the protease stability score amounted to 1.88.

“NEEEEEIKTLSEEILRAWMTGDFDHLRDMMDPNTKLDINGKEVHGREILINLLRKIMEDLGVKHIHIRHKEHQGNWTHLDERQIVGDKRINVHYIWVVVDGRIHSIRIEMR” had a protease stability score of 1.16.
